We go through four molecules from patent US5756340A, “Insect control with multiple toxins” (The Regents of the University of California, priority 1995, dated 1998).

Holding throughout (format): in vivo
Data set [1] relates to Sarcophaga falculata larvae. Kind of data set: Paralysis (PU50) of blow fly larvae after toxin injection. The settings on record: single toxin injected; contraction paralysis immediately, or flaccid/delayed paralysis 5 minutes after injection. As to the method: (§1) The activities of four different insect toxins towards two different insects and towards mice were determined (since one prefers to use insect toxins that have little or no effect on mammals). These were purified by established methods from the respective crude venoms. Their toxicity towards mice and larvae of blow fly and lepidoptera was determined according to the method of Reed and Muench (1938).
(§2) The PU50 values of the toxins to blow fly larvae were in accordance with previously published results (Zlotkin et al., Biochim, 53, 1075-1078 (1971); and Eitan et al., Biochem., 29, 5941-5947 (1990)). […]
one of the toxins and the PU50 were determined. The PU50 of
excitatory toxins AaIT, LqhVI, and LqhIT3 was determined as a
contraction paralysis immediately after injection. The PU50 of the
depressant toxin LqhIT2 was determined as a flaccid paralysis 5
after injection. The PU50 of the α insect toxins LqhαIT

In the next data set the test system is Swiss Webster mice. The data set can be described thus: LD50 to mice, subcutaneous injection. To be noted: for toxicity towards mice / mammals (in words): Swiss Webster mice; for LD50 to Swiss Webster mice: single toxin, subcutaneous, 24 hours after injection. As for the experimental part:
as §1
The PU50 values of the toxins to blow fly larvae were in accordance with previously published results (Zlotkin et al., Biochim, 53, 1075-1078 (1971); and Eitan et al., Biochem., 29, 5941-5947 (1990)).
(§3) ^c Two replicates of eight mice were injected subcutaneously and the
to mice was determined 24 hours after injection.
as §3
LD50 to mice was determined 24 hours after injection.

For data set [2], the system named is Heliothis virescens larvae. Kind of data set: Paralysis (PU50) of lepidopterous larvae after toxin injection. To be noted: single toxin injected; inability to move or turn when inverted, 24 hours after injection. As for the experimental part: as §1, §2
each one of the toxins and the PU50 was determined as inability to
or turn when inverted on its back 24 hours after injection. […]

Bounds are passed on as bounds.

Take “LqhαIT: α insect toxin from yellow scorpion Leuirus quinquestriatus hebraeus”: the “PU50 to Sarcophaga falculata larvae” value in data set [1] came out at 0.0025 μg/100 mg b.w. Also, in the data set on Swiss Webster mice, the “toxicity towards mice / mammals (in words)” value was “higher toxicity” and the “LD50 to Swiss Webster mice” value is reported as 8.0 μg/20 g b.w. For the same molecule, the “PU50 to Heliothis virescens larvae” value in data set [2] is reported as 2.5 μg/100 mg b.w.

B1: AaIT: excitatory insect-selective scorpion toxin from Androctonus australis (protein, UniProt P01497 19-88, looked up)
Beta-insect excitatory toxin 1: KKNGYAVDSSGKAPECLLSNYCNNECTKVHYADKGYCCLLSCYCFGLNDDKKVLEISDTRKSYCDTTIIN
Turning to B1, the “PU50 to Sarcophaga falculata larvae” value in data set [1] is listed as 0.0025 μg/100 mg b.w. Besides, in the data set on Swiss Webster mice, the “LD50 to Swiss Webster mice” value is more than 60 μg/20 g b.w. In data set [2], the “PU50 to Heliothis virescens larvae” value is 2.5 μg/100 mg b.w.

B2: LqhIV (protein)
peptide: GVRDAYIADDKNCVYTCGANSYCNTECTKNGAESGYCQWFGKYGNACWCIKLPDKVPIRIPGKCR
Consider B2, for which, in data set [1], the “PU50 to Sarcophaga falculata larvae” value stood at 0.1 μg/100 mg b.w. Besides, in the data set with Swiss Webster mice, the “toxicity towards mice / mammals (in words)” value is on record as “no or weak mammal toxicity” and the “LD50 to Swiss Webster mice” value turned out to be 12 μg/20 g b.w. Also, the “PU50 to Heliothis virescens larvae” value in data set [2] was 0.5 μg/100 mg b.w.

B3: LqhVI (protein)
chain: GVRDGYIAQPENCVYHCFPGSPGCDTLCKGDGASSGHCGFKEGHGLACWCNDLPDKVGIIVEGEKCH
As for B3, in data set [1], the “PU50 to Sarcophaga falculata larvae” value turned out to be 0.006 μg/100 mg b.w. Further, in the data set with Swiss Webster mice, the “toxicity towards mice / mammals (in words)” value is listed as “weak mammal toxicity” and the “LD50 to Swiss Webster mice” value is more than 60 μg/20 g b.w. In addition, the “PU50 to Heliothis virescens larvae” value in data set [2] turned out to be 3.0 μg/100 mg b.w.
